From publication PMC2640967 come the findings set out here.

In the test the target is Vps24 (full-length, two-hybrid fusion) (A. nidulans). The experiment in a line: two-hybrid.

In turn, Vps4 (two-hybrid fusion) (enzyme) displayed a fold lower β-galactosidase activity than with DidB^Did2 of 30 fold.

B1: PalB-(1–130) prey (two-hybrid fusion) (domain or fragment)
chain: MSRTSSAPSQKSLISRALKAERDVITASSQSQALDAAIDAAEHYMKALALTSSSKDRNVLDAKCKEWLTRAEKIKGSEDWRSVAQSRRSRLRTPASTRKLTTREDIILLQGAKLNGFIFPPWKAEPSLTE
For the molecule B1, the fold β-galactosidase activity with Vps24 over that with DidB was 10 fold.
